According to article PMC8697598 (ACS Omega, 2021):

T1: AfGcHK (Anaeromyxobacter sp. Fw109-5, UniProt A7HD43)
T1 construct: gene gchK; full-length, C-terminal His6 tag kept, pET-21c in E. coli BL21(DE3); reconstituted with heme or cobalt protoporphyrin IX
T1 sequence (A7HD43 1-382): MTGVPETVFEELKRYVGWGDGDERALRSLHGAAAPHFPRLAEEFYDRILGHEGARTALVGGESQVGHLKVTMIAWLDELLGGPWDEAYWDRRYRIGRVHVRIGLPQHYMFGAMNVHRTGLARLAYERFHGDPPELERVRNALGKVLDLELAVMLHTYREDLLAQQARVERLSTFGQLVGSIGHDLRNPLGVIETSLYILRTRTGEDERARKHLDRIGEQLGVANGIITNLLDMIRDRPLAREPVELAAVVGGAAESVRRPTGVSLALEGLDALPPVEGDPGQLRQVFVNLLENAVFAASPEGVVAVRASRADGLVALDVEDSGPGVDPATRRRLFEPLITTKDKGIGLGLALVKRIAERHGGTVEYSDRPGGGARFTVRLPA

B1: Fe-AfGcHK, globin-coupled histidine kinase from Anaeromyxobacter sp. Fw109-5 reconstituted with heme (iron protoporphyrin IX) (enzyme, UniProt A7HD43 1-382, looked up)
chain: T1 sequence (A7HD43 1-382)
notes: AfGcHK, globin-coupled oxygen sensor histidine kinase from Anaeromyxobacter sp; Fw109-5; full-length protein with N-terminal globin sensor domain and C-terminal histidine kinase domain; predicted mass 43.0 kDa with the C-terminal His6 tag; Holds one equivalent of heme (iron protoporphyrin IX) per subunit; As purified, partially pre-autophosphorylated (about 10%, at His183); source: E. coli …
B2: Co-AfGcHK, cobalt-substituted AfGcHK (globin-coupled histidine kinase from Anaeromyxobacter sp. Fw109-5 reconstituted with cobalt protoporphyrin IX) (enzyme, UniProt A7HD43 1-382, looked up)
chain: T1 sequence (A7HD43 1-382)
notes: AfGcHK, globin-coupled oxygen sensor histidine kinase from Anaeromyxobacter sp; Fw109-5; full-length protein with N-terminal globin sensor domain and C-terminal histidine kinase domain; predicted mass 43.0 kDa with the C-terminal His6 tag; Same polypeptide and construct as m1; source: E. coli BL21(DE3), pET-21c; cobalt(III) protoporphyrin IX chloride added to the crude extract; purified (HisTrap …)

Assays:
AfGcHK = biological target: T1, AfGcHK; test: autophosphorylation, Phos-tag SDS-PAGE; type: biochemical; conditions: Fe(III) and Fe(II)-O2 heme forms of Fe-AfGcHK; 1 mM ATP, 5 mM MgCl2, pH 8.0, 25 °C
[1] = biological target: the molecule itself; test: SEC; analytical gel filtration, Superdex 200 Increase 10/300 GL, 50 mM Tris-HCl pH 8.0, 100 mM NaCl; molecular weight estimated from elution volumes of standard proteins

Molecule	autophosphorylation, Phos-tag SDS-PAGE (AfGcHK)	stoichiometry N [1]
Nc1ncnc2c1ncn2[C@@H]1O[C@H](COP(=O)(O)OP(=O)(O)OP(=O)(O)O)[C@@H](O)[C@H]1O [ATP]	the Fe(III), and Fe(II)-O2 complexes of Fe-AfGcHK displayed autophosphorylation activity	
B1		2
B2		2
